# Laboratory results from patent US20240409647A1 (SINOMAB BIOSCIENCE, published 2024).
# B1: SM17 (antibody, human IgG4 S228P, kappa, V domains shown)
# VH: QVQLVQSGAEVKKPGASVKVSCKASGYTFISYWMNWVRQAPGQGLEWMGRIDPYDSEIQYNQKFKDRVTMTRDTSISTAYMELSRLRSDDTAVYYCARSGGFDWFAYWGQGTLVTVSS
# VL: DIQMTQSPSSLSASVGDRVTITCRASENINSNLAWYQQKPGKAPKLLLYDVTNLADGVPSRFSGSGSGTDYTLTISSLQPEDFATYYCQHFWGPPYTFGGGTKVEIKR
# notes: other paragraphs and claim 15 call the same entries VH and VL; also called humanized anti-IL17RB monoclonal antibody
# Experiments:
# [1] = target: T1, human IL-17 receptor subunit E (human, UniProt Q8NFR9 24-454, limits assumed); test: ELISA, coated receptor; SM17 at 0.0032 µg/mL; well 1
# T1 construct: also called hIL17RE
# T1 sequence (looked up): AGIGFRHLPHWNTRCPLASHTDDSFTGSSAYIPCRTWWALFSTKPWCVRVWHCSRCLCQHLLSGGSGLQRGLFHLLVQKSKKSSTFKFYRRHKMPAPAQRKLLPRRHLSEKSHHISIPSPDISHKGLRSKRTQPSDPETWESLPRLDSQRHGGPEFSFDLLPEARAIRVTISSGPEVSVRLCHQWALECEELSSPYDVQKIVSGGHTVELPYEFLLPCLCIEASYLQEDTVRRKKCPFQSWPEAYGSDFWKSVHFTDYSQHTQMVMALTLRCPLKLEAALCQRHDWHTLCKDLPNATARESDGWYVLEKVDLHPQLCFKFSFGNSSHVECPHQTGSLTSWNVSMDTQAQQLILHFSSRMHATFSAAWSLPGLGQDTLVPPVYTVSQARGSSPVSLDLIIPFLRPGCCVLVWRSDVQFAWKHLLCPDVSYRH
# [2] = target: T2, human IL-17 receptor subunit C (human, UniProt Q8NAC3-2 21-467, limits assumed); test: as above
# T2 construct: also called IL17RC; hIL17RC
# T2 sequence (looked up): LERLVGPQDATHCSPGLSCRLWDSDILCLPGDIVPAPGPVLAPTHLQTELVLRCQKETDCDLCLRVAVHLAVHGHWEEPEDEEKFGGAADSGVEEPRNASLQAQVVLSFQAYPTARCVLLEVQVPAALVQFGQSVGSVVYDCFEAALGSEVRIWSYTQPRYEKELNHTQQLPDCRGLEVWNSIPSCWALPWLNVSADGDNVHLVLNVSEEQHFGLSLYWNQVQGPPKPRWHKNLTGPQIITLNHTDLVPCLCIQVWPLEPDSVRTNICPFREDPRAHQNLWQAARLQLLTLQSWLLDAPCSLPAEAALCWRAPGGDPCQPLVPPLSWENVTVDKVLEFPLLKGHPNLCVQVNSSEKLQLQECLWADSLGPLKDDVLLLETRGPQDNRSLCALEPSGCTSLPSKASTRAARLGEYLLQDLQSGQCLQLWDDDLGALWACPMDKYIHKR
# [3] = target: T3, human IL-17 receptor subunit A (human, UniProt Q96F46 33-320); test: as above
# T3 construct: also called IL17RA; hIL17RA
# [4] = target: T4, human IL-17 receptor subunit D (human, UniProt Q8NFM7 28-299, limits assumed); test: as above
# T4 construct: also called IL17RD; hIL 17RD
# T4 sequence (looked up): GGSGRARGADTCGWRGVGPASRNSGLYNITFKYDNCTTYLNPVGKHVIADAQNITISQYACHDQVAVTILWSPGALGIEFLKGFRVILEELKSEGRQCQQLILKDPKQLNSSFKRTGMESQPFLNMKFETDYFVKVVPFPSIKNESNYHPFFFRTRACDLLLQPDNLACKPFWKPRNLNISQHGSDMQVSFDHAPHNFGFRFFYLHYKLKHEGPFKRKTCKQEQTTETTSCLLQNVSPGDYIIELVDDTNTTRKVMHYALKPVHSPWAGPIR
# [5] = target: T5, human IL-17RB protein (recombinant, R&D systems) (human); test: as above
# T5 construct: Bought protein; also called hIL17RB
# T5 sequence (Q9NRM6 whole entry, looked up): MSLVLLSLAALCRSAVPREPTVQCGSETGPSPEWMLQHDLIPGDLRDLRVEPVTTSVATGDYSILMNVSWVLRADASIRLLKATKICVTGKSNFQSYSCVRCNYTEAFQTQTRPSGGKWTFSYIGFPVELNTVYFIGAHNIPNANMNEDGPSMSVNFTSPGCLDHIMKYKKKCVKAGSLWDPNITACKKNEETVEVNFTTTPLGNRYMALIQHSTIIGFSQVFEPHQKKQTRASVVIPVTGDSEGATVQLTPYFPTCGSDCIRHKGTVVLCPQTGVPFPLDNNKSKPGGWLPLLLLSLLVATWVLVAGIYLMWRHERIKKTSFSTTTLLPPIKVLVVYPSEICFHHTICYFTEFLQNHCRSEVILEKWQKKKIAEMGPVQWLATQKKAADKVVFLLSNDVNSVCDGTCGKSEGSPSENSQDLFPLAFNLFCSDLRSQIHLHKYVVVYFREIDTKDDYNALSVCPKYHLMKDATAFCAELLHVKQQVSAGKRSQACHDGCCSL
# [6] = target: T6, human TSLP (R&D systems) (human, UniProt Q969D9 29-159); test: BLI (Octet RED96), binder captured via anti-human Fab CH1, TSLP in solution
# T6 construct: also called thymic stromal lymphopoietin
# Description: Biosensors immobilized with irrelevant antibody (SM03, anti-human CD22 chimeric IgG1 antibody, SinoMab BioScience Limited, 20 μg/mL) were used as control reference.
# [7] = target: T1, human IL-17 receptor subunit E; test: ELISA, coated receptor; SM17 at 0.4 µg/mL; well 2
# [8] = target: T2, human IL-17 receptor subunit C; test: ELISA, coated receptor; SM17 at 0.4 µg/mL; well 2
# [9] = target: T4, human IL-17 receptor subunit D; test: ELISA, coated receptor; SM17 at 0.4 µg/mL; well 2
binder,measurement,setting,value
B1,OD 450 nm Absorption,[1],-0.01 OD450
same,OD 450 nm Absorption,[2],0.03 OD450
same,OD 450 nm Absorption,[3],0.2 OD450
same,OD 450 nm Absorption,[4],0.04 OD450
same,OD 450 nm Absorption,[5],0.16 OD450
same,Kd,[6],100 nM
same,koff,[6],0.001 s⁻¹
same,OD 450 nm Absorption,[7],0.05 OD450
same,OD 450 nm Absorption,[8],0.18 OD450
same,OD 450 nm Absorption,[9],0.08 OD450
